Consider two molecules from paper doi:10.1101/2025.03.25.645380, “Extracellular Nanobody Screening using Conformationally Stable GPCR” (bioRxiv, 2025).

The target in assay [1] is T1, M1R-G11CT (Homo sapiens (from template PDB 6OIJ), UniProt P11229, chimera).
T1 construct: M1 muscarinic acetylcholine receptor (M1R), N-terminal part through TM5 up to the fusion site T215 (5.65); de novo designed fusion protein (RFdiffusion, ProteinMPNN, AlphaFold2) put between T215 and A364 in place of ICL3; M1 muscarinic acetylcholine receptor (M1R), from the fusion site A364 (6.34) in TM6 to the C-terminus of the receptor; 2×GGSGG linker between the C-terminus of the receptor and …
The assay is described as follows: flow cytometry on cells; nanobody displayed on yeast, single colonies; stained with 10 nM fluorescence-labeled purified FLAG-tagged receptor (atropine-bound M1R-Clip1 or iperoxo-bound M1R-G11CT), Alexa Fluor-647 anti-FLAG and Alexa Fluor-488 anti-HA; selection buffer 20 mM HEPES pH 7.5, 100 mM NaCl, 0.05% MNG, 0.005% CHS, 2 mM CaCl2, 0.1% BSA, 0.2% maltose. To be noted: one partner purified. Background: In flow cytometry, cells or beads pass a laser one at a time.

Assay [2] deals with T1, M1R-G11CT. The assay is described as follows: cryo-EM structure; purified M1R-nanobody complexes on Au Quantifoil grids; Nb1B4 with M1R-G11CT and iperoxo, NbA12 with M1R-Clip1 and atropine. The settings on record: both partners purified.
Target sequence in this assay (P11229 whole entry, stated change not applied, the tested form may be a part): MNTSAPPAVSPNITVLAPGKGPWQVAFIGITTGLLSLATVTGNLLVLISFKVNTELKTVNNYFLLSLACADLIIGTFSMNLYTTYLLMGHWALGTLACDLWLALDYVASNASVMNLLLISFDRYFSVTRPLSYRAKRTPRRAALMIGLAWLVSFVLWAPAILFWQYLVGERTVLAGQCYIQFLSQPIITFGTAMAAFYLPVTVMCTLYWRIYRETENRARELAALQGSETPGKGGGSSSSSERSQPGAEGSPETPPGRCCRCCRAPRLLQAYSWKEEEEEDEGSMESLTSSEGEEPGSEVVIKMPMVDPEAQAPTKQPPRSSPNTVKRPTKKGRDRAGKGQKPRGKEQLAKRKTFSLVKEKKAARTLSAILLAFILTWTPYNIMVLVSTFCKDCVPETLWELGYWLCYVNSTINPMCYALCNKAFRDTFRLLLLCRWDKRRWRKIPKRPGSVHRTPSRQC

B1: Nb1B4 displayed on yeast (VHH)
VHH: QVQLQESGGGLVQAGGSLRLSCAASGSIFYGYYMGWYRQAPGKEREFVATINYGASTNYADSVKGRFTISRDNAKNTVYLQMNSLKPEDTAVYYCAVRRVYVYVQRYYHYYWGQGTQVTVSS
notes: Yeast display fusion; also called active-state selective nanobody
Turning to B1, the binding result in assay [1] is “binds”.

B2: Nb1B4, purified (VHH)
VHH: B1 VHH
notes: also called active-state selective nanobody; source: E. coli BL21(DE3) periplasm or HEK293F supernatant, purified (Ni-NTA, SEC)
For the molecule B2, the binding result in assay [2] was “binds”.
